Target: human melanocortin 1 receptor (human) (UniProt Q01726)
Sequence (Q01726 whole entry): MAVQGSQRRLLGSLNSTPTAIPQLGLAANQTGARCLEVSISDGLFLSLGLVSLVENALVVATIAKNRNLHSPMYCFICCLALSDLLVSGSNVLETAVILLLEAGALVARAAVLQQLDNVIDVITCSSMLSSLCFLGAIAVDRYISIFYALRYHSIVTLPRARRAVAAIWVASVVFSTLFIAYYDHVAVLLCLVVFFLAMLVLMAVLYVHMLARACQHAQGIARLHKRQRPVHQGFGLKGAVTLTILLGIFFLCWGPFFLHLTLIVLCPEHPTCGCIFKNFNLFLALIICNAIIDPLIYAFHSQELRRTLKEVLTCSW

cAMP agonist EC50 (AlphaScreen cAMP assay, HEK293 cells expressing the receptor): 4.5 µM
Binder: DQYKCLQHGGFCLRSSCPSNTKLQGTCKPDKPNCCKS (reduced, linear form) [mouse β-defensin 1, linear, reduced form]

Reference: PMC6007841
